Source: publication PMC8062120, “Molecular basis of F-actin regulation and sarcomere assembly via myotilin” (PLoS Biology, 2021)
Each block holds one binder with its values, some of them ahead of it.

Assays:
[1] = target: F-actin (rabbit skeletal muscle actin, polymerized) (rabbit, UniProt P68135 1-377); experiment: co-sedimentation; F-actin co-sedimentation, conditions B2 (PIPES pH 6.8, 100 mM NaCl); fixed 6 μM myotilin fragment in 20 μl mixed with pre-polymerized F-actin (0 to 60 μM) in 20 μl; one site-specific binding fit; apparent Kd; details: both partners purified
[2] = target: T1, Full-length myotilin with N-terminal thioredoxin tag (Trx-MYOT) (human, UniProt Q9UBF9 1-498); experiment: ITC; 25°C; 400 μM ACTN2-EF14 injected into the cell with 20 μM Trx-MYOT or Trx-MYOT-NEECK; 20 mM Hepes, 400 mM NaCl, 250 mM arginine, 5% glycerol, pH 7.5; details: both partners purified
T1 construct: myotilin, human, full length; source: E. coli B834 (DE3), purified (HisTrap FF, SEC); not shown: Trx, N-terminal, kept
T1 sequence (looked up): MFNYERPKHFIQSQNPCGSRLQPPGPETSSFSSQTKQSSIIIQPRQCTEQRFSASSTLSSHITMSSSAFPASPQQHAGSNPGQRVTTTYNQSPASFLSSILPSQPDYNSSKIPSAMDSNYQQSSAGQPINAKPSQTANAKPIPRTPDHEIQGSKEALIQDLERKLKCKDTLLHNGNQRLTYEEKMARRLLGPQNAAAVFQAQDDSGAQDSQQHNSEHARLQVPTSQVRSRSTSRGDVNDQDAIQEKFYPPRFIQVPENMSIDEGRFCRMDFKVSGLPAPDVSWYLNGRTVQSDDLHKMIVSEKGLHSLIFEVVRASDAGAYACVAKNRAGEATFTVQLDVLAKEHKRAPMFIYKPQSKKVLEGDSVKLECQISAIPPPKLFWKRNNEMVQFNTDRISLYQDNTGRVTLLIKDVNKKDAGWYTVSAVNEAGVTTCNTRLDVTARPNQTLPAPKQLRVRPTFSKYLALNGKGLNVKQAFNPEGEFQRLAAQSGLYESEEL

[3] = target: the molecule itself; experiment: SAXS; batch SAXS at high or comparable concentrations; Ig1Ig2^250–444 up to 14.12 mg/ml, Ig1Ig2^250–498 up to 42.8 mg/ml, Ig1Ig2^220–452 up to 52 or 36.6 mg/ml, R405K up to 45.5 mg/ml; 20 mM HEPES, 150 mM NaCl, 5% glycerol, 1 mM DTT, pH 7.4 (one 220–452 set in 20 mM MES, 200 mM NaCl, pH 6.0); mass from I0, Rg, Dmax, P(r); monomer to dimer

Kd [1]: 2000 ± 400 nM
B1: Myotilin Ig1Ig2^185–498 (domain or fragment)
chain: MARRLLGPQNAAAVFQAQDDSGAQDSQQHNSEHARLQVPTSQVRSRSTSRGDVNDQDAIQEKFYPPRFIQVPENMSIDEGRFCRMDFKVSGLPAPDVSWYLNGRTVQSDDLHKMIVSEKGLHSLIFEVVRASDAGAYACVAKNRAGEATFTVQLDVLAKEHKRAPMFIYKPQSKKVLEGDSVKLECQISAIPPPKLFWKRNNEMVQFNTDRISLYQDNTGRVTLLIKDVNKKDAGWYTVSAVNEAGVTTCNTRLDVTARPNQTLPAPKQLRVRPTFSKYLALNGKGLNVKQAFNPEGEFQRLAAQSGLYESEEL
notes: source: E. coli C41 (DE3), purified (HisTrap FF, HRV-3C cleavage, StrepTrap HP, SEC)

Kd [2]: 4200 ± 1200 nM
B2: α-actinin-2 EF14 (ACTN2-EF14), CAMD encoding all 4 EF-hands (domain or fragment)
chain: DAKGITQEQMNEFRASFNHFDRRKNGLMDHEDFRACLISMGYDLGEAEFARIMTLVDPNGQGTVTFQSFIDFMTRETADTDTAEQVIASFRILASDKPYILAEELRRELPPDQAQYCIKRMPAYSGPGSVPGALDYAAFSSALYGESDL
modifications: His6-tag removed with HRV-3C protease; limits not printed (S3 Table), so taken by convention from just before EF-hand 1 (753) to the C-terminus

Kd [1]: 1200 ± 200 nM
B3: Myotilin Ig1Ig2^250–498 (domain or fragment)
chain: PRFIQVPENMSIDEGRFCRMDFKVSGLPAPDVSWYLNGRTVQSDDLHKMIVSEKGLHSLIFEVVRASDAGAYACVAKNRAGEATFTVQLDVLAKEHKRAPMFIYKPQSKKVLEGDSVKLECQISAIPPPKLFWKRNNEMVQFNTDRISLYQDNTGRVTLLIKDVNKKDAGWYTVSAVNEAGVTTCNTRLDVTARPNQTLPAPKQLRVRPTFSKYLALNGKGLNVKQAFNPEGEFQRLAAQSGLYESEEL
notes: source: E. coli B834 (DE3), purified (HisTrap, HRV-3C cleavage, Resource S cation exchange, SEC); not shown: His tag (from the HisTrap column)

B4: Myotilin Ig1Ig2^220–452 (domain or fragment, human, UniProt Q9UBF9 220-452, looked up)
chain: LQVPTSQVRSRSTSRGDVNDQDAIQEKFYPPRFIQVPENMSIDEGRFCRMDFKVSGLPAPDVSWYLNGRTVQSDDLHKMIVSEKGLHSLIFEVVRASDAGAYACVAKNRAGEATFTVQLDVLAKEHKRAPMFIYKPQSKKVLEGDSVKLECQISAIPPPKLFWKRNNEMVQFNTDRISLYQDNTGRVTLLIKDVNKKDAGWYTVSAVNEAGVTTCNTRLDVTARPNQTLPAPK
notes: Dimer only at high concentration; monomeric at low concentrations; source: E. coli, purified (HisTrap, HRV-3C cleavage, SEC); not shown: His tag (from the HisTrap column)
stoichiometry N [3]: 2

Kd [1]: 3000 ± 600 nM
B5: Myotilin Ig1Ig2^185–454 (domain or fragment)
chain: MARRLLGPQNAAAVFQAQDDSGAQDSQQHNSEHARLQVPTSQVRSRSTSRGDVNDQDAIQEKFYPPRFIQVPENMSIDEGRFCRMDFKVSGLPAPDVSWYLNGRTVQSDDLHKMIVSEKGLHSLIFEVVRASDAGAYACVAKNRAGEATFTVQLDVLAKEHKRAPMFIYKPQSKKVLEGDSVKLECQISAIPPPKLFWKRNNEMVQFNTDRISLYQDNTGRVTLLIKDVNKKDAGWYTVSAVNEAGVTTCNTRLDVTARPNQTLPAPKQL
notes: limits determined by intact protein mass spectrometry of the final product; source: E. coli, purified (GSTrap FF, TEV cleavage, IMAC and GSTrap flow-through, SEC)
